From IntAct's records for PubMed 17098193

B1: Splicing factor 3A subunit 1 (Homo sapiens), Q15459 (parent)
chain: MPAGPVQAVPPPPPVPTEPKQPTEEEASSKEDSAPSKPVVGIIYPPPEVRNIVDKTASFVARNGPEFEARIRQNEINNPKFNFLNPNDPYHAYYRHKVSEFKEGKAQEPSAAIPKVMQQQQQTTQQQLPQKVQAQVIQETIVPKEPPPEFEFIADPPSISAFDLDVVKLTAQFVARNGRQFLTQLMQKEQRNYQFDFLRPQHSLFNYFTKLVEQYTKILIPPKGLFSKLKKEAENPREVLDQVCYRVEWAKFQERERKKEEEEKEKERVAYAQIDWHDFVVVETVDFQPNEQGNFPPPTTPEELGARILIQERYEKFGESEEVEMEVESDEEDDKQEKAEEPPSQLDQDTQVQDMDEGSDDEEEGQKVPPPPETPMPPPLPPTPDQVIVRKDYDPKASKPLPPAPAPDEYLVSPITGEKIPASKMQEHMRIGLLDPRWLEQRDRSIREKQSDDEVYAPGLDIESSLKQLAERRTDIFGVEETAIGKKIGEEEIQKPEEKVTWDGHSGSMARTQQAAQANITLQEQIEAIHKAKGLVPEDDTKEKIGPSKPNEIPQQPPPPSSATNIPSSAPPITSVPRPPTMPPPVRTTVVSAVPVMPRPPMASVVRLPPGSVIAPMPPIIHAPRINVVPMPPSAPPIMAPRPPPMIVPTAFVPAPPVAPVPAPAPMPPVHPPPPMEDEPTSKKLKTEDSLMPEEEFLRRNKGPVSIKVQVPNMQDKTEWKLNGQVLVFTLPLTDQVSVIKVKIHEATGMPAGKQKLQYEGIFIKDSNSLAYYNMANGAVIHLALKERGGRKK
partner: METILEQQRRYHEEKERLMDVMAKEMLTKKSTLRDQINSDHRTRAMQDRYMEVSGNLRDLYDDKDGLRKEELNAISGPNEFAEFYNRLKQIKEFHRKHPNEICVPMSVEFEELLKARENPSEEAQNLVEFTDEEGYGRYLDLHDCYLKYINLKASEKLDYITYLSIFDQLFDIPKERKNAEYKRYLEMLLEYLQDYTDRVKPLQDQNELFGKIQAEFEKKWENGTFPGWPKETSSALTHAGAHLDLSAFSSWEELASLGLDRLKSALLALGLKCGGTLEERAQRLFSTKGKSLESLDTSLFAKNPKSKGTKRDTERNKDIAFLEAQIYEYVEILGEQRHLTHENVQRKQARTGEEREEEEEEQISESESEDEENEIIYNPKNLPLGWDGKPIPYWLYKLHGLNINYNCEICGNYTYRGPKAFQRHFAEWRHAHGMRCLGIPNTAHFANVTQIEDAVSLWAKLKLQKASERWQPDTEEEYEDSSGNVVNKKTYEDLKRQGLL

Variants of: B1
Details: with sf3a3_human SF3A3, Q12874

Row | Variant | effect of a mutation on the interaction
1 | K55L | increasing interaction

Variants of: B1
Details: with sf3a3_human SF3A3, Q12874
Remark: another data set of the same source

Row | Variant | effect of a mutation on the interaction
2 | L169K | disrupting interaction
